Measured values published in patent US20250382373A1 (BIOCYTOGEN PHARMACEUTICALS BEIJING, published 2025).
Read-outs that look alike come from different tables or passages of the source.

How the values were obtained:
[1] = target: T1, monkey EGFR on CHO-S-fasEGFR cells (monkey (crab-eating macaque; Macaca …, UniProt P55245 25-645); test: flow cytometry on CHO-S-fasEGFR cells; further: test concentration or dose not given here
[2] = target: T2, human EGFR on CHO-S-hEGFR cells (human, UniProt P00533 25-645); test: flow cytometry on CHO-S-hEGFR cells
[3] = target: T3, His-tagged monkey EGFR protein (monkey (crab-eating macaque; Macaca …, UniProt A0A2K5WK39 25-645); test: SPR (Biacore 8K), antibody on Protein A chip
T3 construct: also called fasEGFR-His; not shown: His tag

[4] = target: T4, His-tagged human EGFR protein (human, UniProt P00533 25-645); test: SPR (Biacore 8K), antibody on Protein A chip
T4 construct: Bought protein; also called hEGFR-His; not shown: His tag

[5] = target: T3, His-tagged monkey EGFR protein; test: SPR (Biacore 8K), Protein A chip
[6] = target: T5, His-tagged human MET protein (human, UniProt P08581 25-932); test: SPR (Biacore 8K), Protein A chip
T5 construct: Bought protein; also called hMET-His; not shown: His tag

[7] = target: T1, monkey EGFR on CHO-S-fasEGFR cells; test: flow cytometry on CHO-S-fasEGFR cells; remark: listed apart in the source; further: test concentration or dose not given here
[8] = target: T2, human EGFR on CHO-S-hEGFR cells; test: flow cytometry on CHO-S-hEGFR cells; remark: listed apart in the source
[9] = target: T3, His-tagged monkey EGFR protein; test: SPR (Biacore 8K), antibody on Protein A chip; remark: listed apart in the source
human MET on SNU-5 cells = target: T6, human MET on SNU-5 cells (human, UniProt P08581 25-1390); test: flow cytometry on SNU-5 cells
T6 construct: whole, on cells; Endogenous MET of SNU-5 cells

[10] = target: T5, His-tagged human MET protein; test: SPR (Biacore 8K), antibody on Protein A chip
[11] = target: T7, monkey MET on fasMET-NIH3T3 cells (monkey (Macaca fascicularis)); test: flow cytometry on fasMET-NIH3T3 cells; further: test concentration or dose not given here
[12] = target: T4, His-tagged human EGFR protein; test: SPR (Biacore 8K), Protein A chip
[13] = target: T4, His-tagged human EGFR protein; test: SPR (Biacore 8K), antibody on Protein A chip; remark: listed apart in the source
[14] = target: T7, monkey MET on fasMET-NIH3T3 cells; test: flow cytometry on fasMET-NIH3T3 cells; remark: listed apart in the source; further: test concentration or dose not given here
[15] = target: human MET on hMET-NIH3T3 cells (human, UniProt P08581 25-1390); test: flow cytometry on hMET-NIH3T3 cells; further: test concentration or dose not given here
[16] = target: T5, His-tagged human MET protein; test: SPR (Biacore 8K), antibody on Protein A chip; remark: listed apart in the source

T7 sequence (chain, as listed by the source limits assumed): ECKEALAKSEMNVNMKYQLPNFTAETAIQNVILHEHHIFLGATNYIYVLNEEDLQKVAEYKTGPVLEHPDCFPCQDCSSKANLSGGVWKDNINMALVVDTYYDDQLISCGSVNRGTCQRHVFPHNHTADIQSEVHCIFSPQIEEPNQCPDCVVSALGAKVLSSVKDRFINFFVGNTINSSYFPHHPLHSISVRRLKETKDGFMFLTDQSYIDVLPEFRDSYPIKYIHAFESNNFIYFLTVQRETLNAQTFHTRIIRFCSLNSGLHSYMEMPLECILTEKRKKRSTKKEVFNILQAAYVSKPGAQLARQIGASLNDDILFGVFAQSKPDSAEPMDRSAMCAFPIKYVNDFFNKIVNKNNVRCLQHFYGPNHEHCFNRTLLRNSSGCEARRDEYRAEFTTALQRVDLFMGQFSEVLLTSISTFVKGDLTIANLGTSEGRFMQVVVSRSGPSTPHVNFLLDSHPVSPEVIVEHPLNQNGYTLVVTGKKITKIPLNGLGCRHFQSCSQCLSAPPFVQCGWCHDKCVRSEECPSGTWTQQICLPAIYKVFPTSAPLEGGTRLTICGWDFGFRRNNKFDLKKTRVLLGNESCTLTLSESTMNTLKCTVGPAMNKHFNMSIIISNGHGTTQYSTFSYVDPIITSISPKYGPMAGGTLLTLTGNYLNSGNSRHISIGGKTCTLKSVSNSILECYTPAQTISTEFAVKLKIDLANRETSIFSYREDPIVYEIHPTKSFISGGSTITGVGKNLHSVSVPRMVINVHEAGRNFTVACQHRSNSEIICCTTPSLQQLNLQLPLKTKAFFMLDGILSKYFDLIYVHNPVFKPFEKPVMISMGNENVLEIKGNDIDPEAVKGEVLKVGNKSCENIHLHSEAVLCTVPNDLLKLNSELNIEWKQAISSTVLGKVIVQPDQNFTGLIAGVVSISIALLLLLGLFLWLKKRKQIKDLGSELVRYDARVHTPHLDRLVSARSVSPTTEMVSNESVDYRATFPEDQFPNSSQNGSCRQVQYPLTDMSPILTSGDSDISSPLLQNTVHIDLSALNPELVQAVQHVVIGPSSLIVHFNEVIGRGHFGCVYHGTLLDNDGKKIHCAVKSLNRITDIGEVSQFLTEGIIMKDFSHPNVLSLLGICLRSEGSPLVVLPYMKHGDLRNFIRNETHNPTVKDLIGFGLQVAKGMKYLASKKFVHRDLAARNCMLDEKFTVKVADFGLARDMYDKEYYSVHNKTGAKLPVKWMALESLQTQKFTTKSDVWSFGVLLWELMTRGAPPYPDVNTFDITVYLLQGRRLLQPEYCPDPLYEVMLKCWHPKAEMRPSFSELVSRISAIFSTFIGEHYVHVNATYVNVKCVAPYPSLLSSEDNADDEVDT
T5 sequence (P08581 25-932 limits assumed): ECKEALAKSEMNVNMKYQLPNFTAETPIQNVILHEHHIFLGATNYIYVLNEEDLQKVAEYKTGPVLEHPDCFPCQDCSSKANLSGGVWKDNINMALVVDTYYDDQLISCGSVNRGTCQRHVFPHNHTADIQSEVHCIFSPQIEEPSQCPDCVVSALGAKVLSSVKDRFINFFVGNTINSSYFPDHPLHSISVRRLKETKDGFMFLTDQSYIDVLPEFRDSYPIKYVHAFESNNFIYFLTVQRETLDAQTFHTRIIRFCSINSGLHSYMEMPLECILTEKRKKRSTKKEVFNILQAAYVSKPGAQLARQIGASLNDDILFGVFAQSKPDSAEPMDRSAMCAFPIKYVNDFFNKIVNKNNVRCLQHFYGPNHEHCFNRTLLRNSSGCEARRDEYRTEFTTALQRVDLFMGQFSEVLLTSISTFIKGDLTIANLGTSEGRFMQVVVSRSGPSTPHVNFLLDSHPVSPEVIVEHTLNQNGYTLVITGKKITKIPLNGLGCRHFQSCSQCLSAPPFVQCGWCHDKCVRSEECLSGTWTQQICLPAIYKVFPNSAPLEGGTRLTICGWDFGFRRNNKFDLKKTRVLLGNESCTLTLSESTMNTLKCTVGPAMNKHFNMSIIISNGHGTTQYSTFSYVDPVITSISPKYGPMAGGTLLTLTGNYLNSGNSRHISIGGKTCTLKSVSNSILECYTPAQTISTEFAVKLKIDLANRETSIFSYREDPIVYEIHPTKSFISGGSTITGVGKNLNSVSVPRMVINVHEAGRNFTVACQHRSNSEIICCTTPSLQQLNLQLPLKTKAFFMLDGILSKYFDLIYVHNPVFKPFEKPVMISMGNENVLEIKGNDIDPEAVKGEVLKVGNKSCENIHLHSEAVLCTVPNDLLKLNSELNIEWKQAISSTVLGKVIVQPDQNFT
T6 sequence (P08581 25-1390): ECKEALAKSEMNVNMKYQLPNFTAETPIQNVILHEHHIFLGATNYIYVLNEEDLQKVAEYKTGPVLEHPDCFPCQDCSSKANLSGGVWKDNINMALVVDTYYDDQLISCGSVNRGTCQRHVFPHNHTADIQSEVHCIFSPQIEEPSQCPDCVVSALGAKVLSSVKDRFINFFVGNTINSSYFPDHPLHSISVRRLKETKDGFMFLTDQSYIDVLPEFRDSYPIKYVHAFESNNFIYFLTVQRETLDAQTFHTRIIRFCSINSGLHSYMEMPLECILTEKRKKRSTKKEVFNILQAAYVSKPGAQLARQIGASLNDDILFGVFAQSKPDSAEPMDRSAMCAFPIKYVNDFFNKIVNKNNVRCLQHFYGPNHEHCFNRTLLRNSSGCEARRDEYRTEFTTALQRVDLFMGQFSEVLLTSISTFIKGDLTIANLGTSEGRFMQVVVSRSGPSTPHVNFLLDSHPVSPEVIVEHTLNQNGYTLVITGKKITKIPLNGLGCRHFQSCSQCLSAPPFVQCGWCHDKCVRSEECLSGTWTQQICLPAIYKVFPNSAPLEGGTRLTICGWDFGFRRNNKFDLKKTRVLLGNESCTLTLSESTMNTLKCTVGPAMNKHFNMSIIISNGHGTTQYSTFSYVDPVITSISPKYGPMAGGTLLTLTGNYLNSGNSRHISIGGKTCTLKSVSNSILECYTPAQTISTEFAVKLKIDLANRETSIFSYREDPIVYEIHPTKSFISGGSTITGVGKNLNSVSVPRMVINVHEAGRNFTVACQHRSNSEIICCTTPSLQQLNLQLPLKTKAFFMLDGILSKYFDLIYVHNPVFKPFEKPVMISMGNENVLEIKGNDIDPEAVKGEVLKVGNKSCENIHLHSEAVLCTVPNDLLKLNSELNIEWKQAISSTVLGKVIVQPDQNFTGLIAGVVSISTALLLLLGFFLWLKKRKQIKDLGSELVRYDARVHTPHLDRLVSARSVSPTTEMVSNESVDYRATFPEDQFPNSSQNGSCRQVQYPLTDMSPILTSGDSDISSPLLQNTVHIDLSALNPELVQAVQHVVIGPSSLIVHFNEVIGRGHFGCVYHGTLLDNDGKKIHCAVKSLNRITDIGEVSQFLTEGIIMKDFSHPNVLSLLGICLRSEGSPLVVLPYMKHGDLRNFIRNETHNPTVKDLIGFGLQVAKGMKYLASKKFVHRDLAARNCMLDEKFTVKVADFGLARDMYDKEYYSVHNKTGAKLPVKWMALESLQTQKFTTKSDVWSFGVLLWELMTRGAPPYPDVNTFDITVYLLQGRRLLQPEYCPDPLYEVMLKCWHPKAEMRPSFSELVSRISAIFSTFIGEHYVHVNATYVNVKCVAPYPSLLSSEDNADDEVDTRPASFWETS

B1: E-9A6 (antibody, V domains shown)
VH: EVQLQQSGPGLVKPSQTLSLTCTVSGGSISSGDYYWNWIRQPPGKGLEWIGYIYYSGSTYYNPSLKSRVTISVDTSKNQFSLKLSSVTAADTAVYYCAREGVYTIMVDYWGQGTLVTVSS
VL: not shown
For B1, the “Percentage of Positive Cells” value [1] was 55.4%, the “Percentage of Positive Cells” value [2] was 56.9% and the Kd [3] was 12.6 nM. The koff [3] was 0.00173 s⁻¹, the kon [3] was 138000 M⁻¹ s⁻¹ and the Kd [4] was 9.44 nM. It also gave a koff [4] of 0.00176 s⁻¹ and a kon [4] of 186000 M⁻¹ s⁻¹.

B2: E-9H2 (antibody, V domains shown)
VH: EVQLVESGPGLVKPSQTLSLTCTVSGDSISSGDYYWSWIRQPPGKGLEWIGYIYYSGSTYYNPSLKSRVIISLDTSKNQFSLKLISVTAADTAVYYCARVGVYSTSRDYWGQGTLVTVSS
VL: not shown
With B2 the “Percentage of Positive Cells” value [1] was 41.5%, the “Percentage of Positive Cells” value [2] was 44.3% and the Kd [3] was 152 nM. It also gave a koff [3] of 0.0177 s⁻¹, a kon [3] of 117000 M⁻¹ s⁻¹ and a Kd [4] of 98.3 nM. For the same binder, the koff [4] was 0.0151 s⁻¹ and the kon [4] was 154000 M⁻¹ s⁻¹.

B3: E-9D2 (antibody, V domains shown)
VH: EVQLQESGPGLVKPSQTLSLTCTVSGGSISSGDYYWSWIRQPPGKGLEWIGYIYYSGSTYYNPSLKSRVTISVDTSKNQFSLRLSSVTAADTAVYYCARDLVYYYALDVWGQGTTVTVSS
VL: not shown
For B3, the “Percentage of Positive Cells” value [1] was 45.9%, the “Percentage of Positive Cells” value [2] was 38.7% and the Kd [3] was 99.8 nM. The koff [3] was 0.0203 s⁻¹, the kon [3] was 203000 M⁻¹ s⁻¹ and the Kd [4] was 60.3 nM. It also gave a koff [4] of 0.0152 s⁻¹ and a kon [4] of 252000 M⁻¹ s⁻¹.

B4: E-6C4 (antibody, V domains shown)
VH: QVQLQQWGPGLVKPSQTLSLTCTVSGGSINSGDYYWSWIRQPPGKGLESIGYIYYSGSTYYNPSLKSRVTISADTSKNQFSLKLTSVTAADTAVYYCARERVYSSSLDYWGQGTLVTVSS
VL: not shown
With B4 the Kd [5] was 158 nM, the binding result [6] was “no binding (tested: antigen up to 400 nM)” and the “Percentage of Positive Cells” value [7] was 25.4%. The “Percentage of Positive Cells” value [8] was 26.4% and the Kd [9] was 90.3 nM.

B5: E-9F3 (antibody, V domains shown)
VH: QVQLQESGPGLVKPSQTLSLTCTVSGGSINSGDYYWSWIRQPPGKGLEWIGHIYYSGITYYNPSLKSRVTISADTSKNQFSLKLTSVTVADTAVYYCDRAGVYHDMDVWGQGTTVTVSS
VL: not shown
In the case of B5, the “Percentage of Positive Cells” value [1] is reported as 53.7%, the “Percentage of Positive Cells” value [2] is reported as 53.1% and the Kd [3] is reported as 39.9 nM. For the same binder, the koff [3] was 0.0019 s⁻¹, the kon [3] was 47600 M⁻¹ s⁻¹ and the Kd [4] was 27.2 nM. For the same binder, the koff [4] was 0.00177 s⁻¹ and the kon [4] was 64900 M⁻¹ s⁻¹.

B6: M-1E9 (antibody, V domains shown)
VH: QVQLQQWGAGLLKPSETLSLTCVVFGGSFSGYYWSWIRQPPGKGLEWIGEINHSGSTNYNPSLKSRVTVSVDTSKKQFSLNLRSVTAADTAVYYCARGRGIAAAGTYFDYWGQGNLVTVSS
VL: not shown
For B6, the “Percentage of Positive Cells” value (human MET on SNU-5 cells) was 99.3%, the Kd [10] was 30.1 nM and the koff [10] was 0.000698 s⁻¹. The kon [10] was 23200 M⁻¹ s⁻¹ and the “Percentage of Positive Cells” value [11] was 48.8%.

B7: M-2F11 (antibody, V domains shown)
VH: EVQLVESGPGLVKPSETLSLTCTVSGGSISSNYWSWIRQPPGKGLEWIGYIYHSGSTNYNPSLKSRVTISVDTSKNQFSLKLSSVTAADTAVYFCARGPVSIFGVVKYIDLWGRGTLVTVSS
VL: not shown
With B7 the “Percentage of Positive Cells” value (human MET on SNU-5 cells) was 97.1%, the binding result [5] was “no binding (tested: antigen up to 400 nM)” and the binding result [12] was “no binding (tested: antigen up to 400 nM)”. For the same binder, the Kd [6] was 55.6 nM, the koff [6] was 0.0022 s⁻¹ and the kon [6] was 39600 M⁻¹ s⁻¹. For the same binder, the Kd [10] was 54.2 nM, the koff [10] was 0.00313 s⁻¹ and the kon [10] was 57700 M⁻¹ s⁻¹. The “Percentage of Positive Cells” value [11] was 71.1%.

B8: E-6C4-M-2F11 (bispecific antibody)
VH 1: QVQLQQWGPGLVKPSQTLSLTCTVSGGSINSGDYYWSWIRQPPGKGLESIGYIYYSGSTYYNPSLKSRVTISADTSKNQFSLKLTSVTAADTAVYYCARERVYSSSLDYWGQGTLVTVSS
VH 2: EVQLVESGPGLVKPSETLSLTCTVSGGSISSNYWSWIRQPPGKGLEWIGYIYHSGSTNYNPSLKSRVTISVDTSKNQFSLKLSSVTAADTAVYFCARGPVSIFGVVKYIDLWGRGTLVTVSS
light: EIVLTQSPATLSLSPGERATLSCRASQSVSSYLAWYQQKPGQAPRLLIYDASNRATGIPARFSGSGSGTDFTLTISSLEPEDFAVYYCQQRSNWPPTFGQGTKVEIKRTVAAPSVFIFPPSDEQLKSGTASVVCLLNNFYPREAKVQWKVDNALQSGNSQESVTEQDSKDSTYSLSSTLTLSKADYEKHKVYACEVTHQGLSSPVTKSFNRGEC
notes: also called anti-EGFR/MET bispecific antibody E-6C4-M-2F11
For B8, the Kd [5] was 115 nM, the koff [5] was 0.0198 s⁻¹ and the kon [5] was 172000 M⁻¹ s⁻¹. It also gave a Kd [12] of 70.7 nM, a koff [12] of 0.0215 s⁻¹ and a kon [12] of 304000 M⁻¹ s⁻¹. It also gave a Kd [6] of 50.5 nM, a koff [6] of 0.00187 s⁻¹ and a kon [6] of 37000 M⁻¹ s⁻¹.

B9: E-2B7 (antibody, V domains shown)
VH: EVQLQQWGPGLVKPSQTLSLTCTVSGGSINSGDYYWSWIRQPPGKGLEWIGYIYYSGSTYYNPSLKSRVTISLDTSKNQLSLKLSSVTAADTAVYYCARNNDFGDYLYFDNWGQGTLVTVSS
VL: not shown
B9 gave a Kd [5] of 6.49 nM, a koff [5] of 0.000296 s⁻¹ and a kon [5] of 45600 M⁻¹ s⁻¹. The Kd [12] was 4.22 nM, the koff [12] was 0.000301 s⁻¹ and the kon [12] was 71500 M⁻¹ s⁻¹. The binding result [6] was “no binding (tested: antigen up to 400 nM)”, the “Percentage of Positive Cells” value [7] was 28.6% and the “Percentage of Positive Cells” value [8] was 26.1%. The Kd [9] was 5.32 nM, the koff [9] was 0.000342 s⁻¹ and the kon [9] was 64300 M⁻¹ s⁻¹. For the same binder, the Kd [13] was 4.69 nM, the koff [13] was 0.000286 s⁻¹ and the kon [13] was 61000 M⁻¹ s⁻¹.

B10: E-2B7-M-2F11 (bispecific antibody)
VH 1: EVQLQQWGPGLVKPSQTLSLTCTVSGGSINSGDYYWSWIRQPPGKGLEWIGYIYYSGSTYYNPSLKSRVTISLDTSKNQLSLKLSSVTAADTAVYYCARNNDFGDYLYFDNWGQGTLVTVSS
VH 2: EVQLVESGPGLVKPSETLSLTCTVSGGSISSNYWSWIRQPPGKGLEWIGYIYHSGSTNYNPSLKSRVTISVDTSKNQFSLKLSSVTAADTAVYFCARGPVSIFGVVKYIDLWGRGTLVTVSS
light: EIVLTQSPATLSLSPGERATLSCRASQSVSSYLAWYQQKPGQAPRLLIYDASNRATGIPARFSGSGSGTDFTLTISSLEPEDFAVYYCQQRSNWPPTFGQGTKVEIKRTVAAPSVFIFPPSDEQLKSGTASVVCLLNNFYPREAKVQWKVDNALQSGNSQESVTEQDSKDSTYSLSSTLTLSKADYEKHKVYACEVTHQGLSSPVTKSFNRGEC
notes: 1+1 IgG1 bispecific with knobs-into-holes and a common light chain: first VH is the EGFR arm (E-2B7), second VH the MET arm (M-2F11); also called anti-EGFR/MET bispecific antibody E-2B7-M-2F11
B10 was tested, and the Kd [5] was 11.8 nM, the koff [5] was 0.000522 s⁻¹ and the kon [5] was 44300 M⁻¹ s⁻¹. The Kd [12] was 6.82 nM, the koff [12] was 0.000503 s⁻¹ and the kon [12] was 73800 M⁻¹ s⁻¹. For the same binder, the Kd [6] was 28.1 nM, the koff [6] was 0.00109 s⁻¹ and the kon [6] was 38700 M⁻¹ s⁻¹.

B11: M-8D9 (antibody, V domains shown)
VH: QVQLQESGPGLVKPSETLSLTCTVSGGSISGHYWSWIRQSPGKGLEWIGYITYSGSTNYNPSLKSRVTISVDTSKNQFSLKLSSVTAADTAVYYCGTIAVAGRVYYYGVDVWGRGTTVTVSS
VL: not shown
For B11, the “Percentage of Positive Cells” value [14] was 65.3%, the “Percentage of Positive Cells” value [15] was 99.8% and the Kd [16] was 18.6 nM. It also gave a koff [16] of 0.000505 s⁻¹ and a kon [16] of 27100 M⁻¹ s⁻¹.

B12: E-6C4-M-2G10 (bispecific antibody)
VH 1: QVQLQQWGPGLVKPSQTLSLTCTVSGGSINSGDYYWSWIRQPPGKGLESIGYIYYSGSTYYNPSLKSRVTISADTSKNQFSLKLTSVTAADTAVYYCARERVYSSSLDYWGQGTLVTVSS
VH 2: EVQLVESGGGVVQPGRSLRLSCAASGFTFNICGIHWVRQAPGKGLEWVATISHDANDKYYADSVKGRFTISRDNSKNTLYLQMNSLRAEDTAVYYCARDGNRGYDGYFDYWGQGTLVTVSS
light: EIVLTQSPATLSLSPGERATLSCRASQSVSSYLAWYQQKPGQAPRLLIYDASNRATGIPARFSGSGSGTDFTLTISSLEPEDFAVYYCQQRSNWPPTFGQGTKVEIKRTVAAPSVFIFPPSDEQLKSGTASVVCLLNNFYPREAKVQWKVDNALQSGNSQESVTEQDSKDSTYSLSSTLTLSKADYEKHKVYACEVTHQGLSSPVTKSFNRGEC
notes: also called anti-EGFR/MET bispecific antibody E-6C4-M-2G10
B12 gave a Kd [5] of 80.9 nM, a koff [5] of 0.011 s⁻¹ and a kon [5] of 136000 M⁻¹ s⁻¹. It also gave a Kd [12] of 53.1 nM, a koff [12] of 0.0174 s⁻¹ and a kon [12] of 328000 M⁻¹ s⁻¹. For the same binder, the Kd [6] was 41.7 nM, the koff [6] was 0.00165 s⁻¹ and the kon [6] was 39500 M⁻¹ s⁻¹.

B13: E-3A8 (antibody, V domains shown)
VH: EVQLVESGGGLVQPGGSLRLSCAVSGFIFSSYEMNWVRQAPGKGLEWVSYISSSGSTIYYADSVKGRFTISRDNAMNSLNLQMNSLRDEDTAVYYCVRVWYSSGWSGCFAYWGQGSLVTVSS
VL: not shown
In the case of B13, the “Percentage of Positive Cells” value [7] is reported as 23.8%, the “Percentage of Positive Cells” value [8] is reported as 31.2% and the Kd [9] is reported as 21.3 nM. It also gave a koff [9] of 0.00104 s⁻¹, a kon [9] of 48700 M⁻¹ s⁻¹ and a Kd [13] of 23.2 nM. The koff [13] was 0.00101 s⁻¹ and the kon [13] was 43500 M⁻¹ s⁻¹.

B14: E-3D8 (antibody, V domains shown)
VH: EVQLVESGGGLVQPGGSLRLSCAASGFIFSSYEMNWVRQAPGKGLEWVSYISSSGSTIYYADSVKGRFTISRDNAKNSLYLQMNSLRADDTAIYYCARVWYSSGWSGCFAYWGQGTLVTVSS
VL: not shown
With B14 the “Percentage of Positive Cells” value [7] was 24.1%, the “Percentage of Positive Cells” value [8] was 28.8% and the Kd [9] was 34 nM. The koff [9] was 0.00132 s⁻¹, the kon [9] was 38700 M⁻¹ s⁻¹ and the Kd [13] was 39 nM. For the same binder, the koff [13] was 0.00132 s⁻¹ and the kon [13] was 33900 M⁻¹ s⁻¹.
